Results from article PMC8175363.

Target: unspliced Pyrococcus horikoshii PolII intein fusion protein NIHPho (N-extein M-H-A-A-K-R-N, 166-residue intein, C-extein C-D-G-D-E-D-His6) (Pyrococcus horikoshii) (UniProt O57861)
Test: crystal structure; sitting drop vapour diffusion; protein about 3 mg/ml in 20 mM Tris pH 8.0, 100 mM NaCl; reservoir 0.1 M Tris HCl pH 8.5, 1.8 M ammonium sulfate, 0.1 M sodium chloride, 1% glycerol; data at 100 K; phased by SAD with the Se-Met derivative

- stoichiometry N: 2
Substance: unspliced Pyrococcus horikoshii PolII intein fusion protein NIHPho (N-extein M-H-A-A-K-R-N, 166-residue intein, C-extein C-D-G-D-E-D-His6) (from UniProt O57861 945-1123) (domain or fragment)
